Reference: the supplement of paper PMC9170038

System: MS2 coat protein
Assay: apparent KD of MS2 coat protein; designed switch direction (-1 OFF switch, 1 ON switch): -1; higher = weaker reporter binding
Summary of the method: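 Designed RNA switches were transcribed on Illumina chips by stalled E. coli RNA polymerase and titrated with SNAP-549-labelled MS2 coat protein from 0.7 or 1.5 nM, doubling to 3 µM. Step length ran from 0.8–1.5 h at the lowest concentration to 10–20 min at the highest. The apparent KD is the median over clusters for each design, from curve-fitted normalised cluster fluorescence.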

[1] = Eterna round: R95, input ligand: FMN 200 uM
[2] = Eterna round: R95, input ligand: microRNA oligo, concentration not stated
[3] = Eterna round: R95, input ligand: none

For “GAGUGCUAAGGAUAUACAUGAGGAUCACCCAUGUGCUUCAGCUAGGAGACUAGCAUUGGUAGAAGGUAGUACUC [Mod of lroppy 2 - Jieux - Exclusion 3] (Eterna round: R97, puzzle: Exclusion 3)”, the “apparent KD of MS2 coat protein” value (input ligand: FMN 200 uM) was 60.3 nM and the “apparent KD of MS2 coat protein” value (input ligand: none) was 14.7 nM.
For “GAUAGAGAGCAGGAUAUCUUGGAUAAGUGUUGUAGAGAAGGGCUCACAUGAGGAUCACCCAUGUGGUCCUAGAU [JL Dibiri mod 09] (puzzle: Exclusion 6)”, the “apparent KD of MS2 coat protein” value [1] was 37.5 nM, the “apparent KD of MS2 coat protein” value [2] was 13.2 nM and the “apparent KD of MS2 coat protein” value [3] was 14.3 nM.
With “GAUAGAGAGCAGGAUAUCUUGGGUAAGUAUCGUAGAGAAGGGCUCACAUGAGGAUCACCCAUGUGGUCCUAGAU [JL Dibiri mod 03] (puzzle: Exclusion 6)” the “apparent KD of MS2 coat protein” value [2] was 11.5 nM.
For “GAUAGAGAGCAGGAUAUCUUGGGUAAGUGUUGUAGAGAAGGGCUCACAUGAGGAUCACCCAUGUGGUCCUAGAU [JL Dibiri mod 08] (puzzle: Exclusion 6)”, the “apparent KD of MS2 coat protein” value [1] was 33.5 nM, the “apparent KD of MS2 coat protein” value [2] was 14.5 nM and the “apparent KD of MS2 coat protein” value [3] was 11.3 nM.
In the case of “GAUCAACAUGAGGAUCACCCAUGUGAGGAUAUGAUACUAUGUACUUCGGUACAUAGUAUCAGAAGGCAUAUAAA [Ex1-3: 37] (puzzle: Exclusion 1)”, the “apparent KD of MS2 coat protein” value [2] is reported as 40.4 nM.
In the case of “GAUCAUGCAGGAUAUACAUGUUCCAUGAAAACAUGGUCCUCACAUGAGGAUCACCCAUGUAGAAGGGCAUGAUC [Omei Ex2 A31] (Eterna round: R97, puzzle: Exclusion 2)”, the “apparent KD of MS2 coat protein” value (input ligand: FMN 200 uM) is reported as 132 nM and the “apparent KD of MS2 coat protein” value (input ligand: none) is reported as 1450 nM.
“GAUCCUAGUGUCAGGAUAUGCGAACAAACGCCAAAGCAGAAGGGACUUGAGGAUCACCCAAGUCGCGAUGCGAC [Arbiaran] (Eterna round: R97, puzzle: Brourd's mod of Exclusion 4)” was tested, and the “apparent KD of MS2 coat protein” value (input ligand: FMN 200 uM) was 257 nM and the “apparent KD of MS2 coat protein” value (input ligand: none) was 45.1 nM.
For “GAUGAAAGAGUCAGGAUAUAUAACCACGACGGCUUGUAGAAGGGACAUGAGGAUCACCCAUGUGAUGGAAUGAU [Eternabot (L2) Solution 13] (Eterna round: R97, puzzle: Brourd's mod of Exclusion 4)”, the “apparent KD of MS2 coat protein” value (input ligand: FMN 200 uM) was 64 nM and the “apparent KD of MS2 coat protein” value (input ligand: none) was 43.6 nM.
For “GAUGAGGUAGGAUAUACGAUAAUAUAGGGUAGAUAUAUAACACAUGAGGAUCACCCAUGUAGAAGGACCAGGAG [Mat - Exclusion 2 - Mod of my Tesla design - D65] (puzzle: Exclusion 2)”, the “apparent KD of MS2 coat protein” value [1] was 77.3 nM, the “apparent KD of MS2 coat protein” value [2] was 28.1 nM and the “apparent KD of MS2 coat protein” value [3] was 36.1 nM.
In the case of “GAUUAACAUGAGGAUCACCCAUGUGAGGAUAUGAACUUGCCCACUUACCCUUUAGAGUUUAGAAGGCGCAUUCU [1986#33] (Eterna round: R97, puzzle: Exclusion 1)”, the “apparent KD of MS2 coat protein” value (input ligand: FMN 200 uM) is reported as 22.4 nM and the “apparent KD of MS2 coat protein” value (input ligand: none) is reported as 28.2 nM.
For “GAUUAGCGAGGAUAUACAUGAGGAUCACCCAUGUGAUCCUAAGGCUGAUCAAGCCUAUGUAGAAGGCGCAAAUC [salish99_ex3_r5_001] (Eterna round: R97, puzzle: Exclusion 3)”, the “apparent KD of MS2 coat protein” value (input ligand: FMN 200 uM) was 35.2 nM and the “apparent KD of MS2 coat protein” value (input ligand: none) was 224 nM.
In the case of “GAUUAUGCGAGCUUUAGGGACAUGAGGAUCACCCAUGUUCGUCUUAUUAAUCUGGGUGCACUGACAUACCUAAAUCU [JMF 92] (puzzle: Sensor v3, turn-off variant 1)”, the “apparent KD of MS2 coat protein” value [1] is reported as 90.9 nM, the “apparent KD of MS2 coat protein” value [2] is reported as 81.9 nM and the “apparent KD of MS2 coat protein” value [3] is reported as 132 nM.
For “GAUUAUGCGAGCUUUAGGGACAUGAGGAUCACCCAUGUUCGUCUUAUUAGUCUAAAUACGCUGACAUACCUAAAUCU [JMF 94] (puzzle: Sensor v3, turn-off variant 1)”, the “apparent KD of MS2 coat protein” value [1] was 14 nM, the “apparent KD of MS2 coat protein” value [2] was 18 nM and the “apparent KD of MS2 coat protein” value [3] was 18.2 nM.
For “GAUUAUGCGAGCUUUAGGGACAUGAGGAUCACCCAUGUUCGUCUUAUUAGUCUAGAUGCACUGACAUACCUAAAUCU [JMF 78] (puzzle: Sensor v3, turn-off variant 1)”, the “apparent KD of MS2 coat protein” value [1] was 15 nM, the “apparent KD of MS2 coat protein” value [2] was 19.6 nM and the “apparent KD of MS2 coat protein” value [3] was 14.4 nM.
“GAUUAUGCGAGCUUUAGGGACAUGAGGAUCACCCAUGUUCGUCUUAUUGAUCUAAGUGCACUAACAUACCUAAAUCU [JMF 29] (puzzle: Sensor v3, turn-off variant 1)” was tested, and the “apparent KD of MS2 coat protein” value [1] was 25.1 nM, the “apparent KD of MS2 coat protein” value [2] was 53.7 nM and the “apparent KD of MS2 coat protein” value [3] was 27 nM.
With “GAUUAUGCGAGCUUUAGGGACAUGAGGAUCACCCAUGUUCGUCUUAUUGAUCUAGGUACGCUGACGUACCUAGAUCU [JL-sv1-2.35 Brourd mod] (puzzle: Sensor v3, turn-off variant 1)” the “apparent KD of MS2 coat protein” value [1] was 21.9 nM, the “apparent KD of MS2 coat protein” value [2] was 33.7 nM and the “apparent KD of MS2 coat protein” value [3] was 21.8 nM.
In the case of “GAUUAUGCGAGCUUUAGGGACAUGAGGAUCACCCAUGUUCGUCUUAUUGGUCUGAGUGCACUGACAUACCUAAAUCU [JMF 86] (puzzle: Sensor v3, turn-off variant 1)”, the “apparent KD of MS2 coat protein” value [1] is reported as 19.4 nM, the “apparent KD of MS2 coat protein” value [2] is reported as 30.9 nM and the “apparent KD of MS2 coat protein” value [3] is reported as 19.9 nM.
In the case of “GAUUAUGCGAGCUUUAGGGACAUGAGGAUCACCCAUGUUCGUCUUAUUGGUCUGGAUACGCUAACAUACCUAAAUCU [JMF 38] (puzzle: Sensor v3, turn-off variant 1)”, the “apparent KD of MS2 coat protein” value [1] is reported as 21.5 nM, the “apparent KD of MS2 coat protein” value [2] is reported as 30.6 nM and the “apparent KD of MS2 coat protein” value [3] is reported as 24.8 nM.
In the case of “GAUUAUGCGAGCUUUAGGGACAUGAGGAUCACCCAUGUUCGUCUUAUUGGUCUGGAUGCGCUAACAUACCUAAAUCU [JMF 46] (puzzle: Sensor v3, turn-off variant 1)”, the “apparent KD of MS2 coat protein” value [1] is reported as 22.4 nM, the “apparent KD of MS2 coat protein” value [2] is reported as 31.7 nM and the “apparent KD of MS2 coat protein” value [3] is reported as 22.6 nM.
With “GAUUAUGCGAGCUUUAGGGACAUGAGGAUCACCCAUGUUCGUCUUGUUGAUCUAGGUACACUAACAUACCUAAAUCU [JMF 16] (puzzle: Sensor v3, turn-off variant 1)” the “apparent KD of MS2 coat protein” value [1] was 19.9 nM, the “apparent KD of MS2 coat protein” value [2] was 28.5 nM and the “apparent KD of MS2 coat protein” value [3] was 21.9 nM.
For “GAUUGACAUGAGGAUCACCCAUGUGAGGAUAUCGGCCGGACCUUGUUAGCUUCCGUCGCGAGAAGGCGCAUAGG [Exclusion 1 V37] (puzzle: Exclusion 1)”, the “apparent KD of MS2 coat protein” value [1] was 62.6 nM, the “apparent KD of MS2 coat protein” value [2] was 39.9 nM and the “apparent KD of MS2 coat protein” value [3] was 33.2 nM.
For “GCAAGCUUAAUCAGUAUGAACAUGAGGAUCACCCAUGUAUAAGGUAAUCCUUUUGGGCCCUUUAUUACUCGUCUUAU [JR_STOV1_Sub028] (Eterna round: R97, puzzle: Sensor, turn-off variant 1)”, the “apparent KD of MS2 coat protein” value (input ligand: FMN 200 uM) was 322 nM and the “apparent KD of MS2 coat protein” value (input ligand: none) was 405 nM.
In the case of “GCAAGCUUUUCGAUCCUCGACAUGAGGAUCACCCAUGUGCUCGAAUUGUUUAGUACUAUCACGAAAGUGAUAGUACA [Sensor, turn off variant 1 v.3] (Eterna round: R97, puzzle: Sensor, turn-off variant 1)”, the “apparent KD of MS2 coat protein” value (input ligand: FMN 200 uM) is reported as 1570 nM and the “apparent KD of MS2 coat protein” value (input ligand: none) is reported as 1570 nM.
With “GCAAGCUUUUUCAAUAAGAACAUGAGGAUCACCCAUGUUUAAGGUAUUACUUUUGGGCUCUUUAGUGCUAGUCUUAU [JR_STOV1_Sub036] (Eterna round: R97, puzzle: Sensor, turn-off variant 1)” the “apparent KD of MS2 coat protein” value (input ligand: FMN 200 uM) was 45.9 nM and the “apparent KD of MS2 coat protein” value (input ligand: none) was 45.5 nM.
In the case of “GCACGAAGUGGAGGAUAUCUGGGCGAGGAGCGCAGAGAAGGCCACAUGAGGAUCACCCAUGUUUUCCACGGAUAGCAAACGUGC [exng1 ex2.1] (Eterna round: R96, puzzle: Exclusion NG 1)”, the “apparent KD of MS2 coat protein” value (input ligand: FMN 200 uM) is reported as 25.5 nM, the “apparent KD of MS2 coat protein” value (input ligand: microRNA oligo, concentration not stated) is reported as 15.2 nM and the “apparent KD of MS2 coat protein” value (input ligand: none) is reported as 23 nM.
